Results on six molecules are retold here after article PMC3210020.

Read-outs that look alike come from different tables or passages of the source.

The target in assay [1] is integrin αIIbβ3 (human) (UniProt P05106). As to the kind of experiment: ELISA.
Assay [2] has the same target. Nature of the assay: SPR.
The target of assay [3] is integrin αIIbβ3 (Homo sapiens) (UniProt P08514). The conditions noted are these: cited from earlier work.
For assay [4] the target is unchanged. The note with it: cited from earlier work. The source holds these as a separate data set.
Assay [5] shares this target. As to the kind of experiment: SPR. The conditions noted are these: cited from earlier work.
Assay [6] has the same target. Nature of the assay: solid-phase binding. The note with it: cited from earlier work.
In assay [7] the target is integrin αIIbβ3 (human) (UniProt P05106). Nature of the assay: SPR. This is another data set of the same source.
Assay [8] has the same target. Nature of the assay: SPR. The source holds these as a separate data set.

“biotinylated fibrinogen (from UniProt P02671-2 36-644; P02675 45-491; P02679-2 27-437) (natural protein)” displayed a midpoint of the saturable binding profile in the assay with integrin αIIbβ3 (human) [1] of 2 nM.

eptifibatide (peptide): the Ki with integrin αIIbβ3 (human) [2] was 0.4 nM.

On to fibrinogen (from UniProt P02671), for which the Kd in assay [3] is 50 nM; in assay [4] it was 165 nM; in assay [5], 3 nM; in assay [6] it was 60 nM.

For the molecule “human fibrinogen (plasma), (AαBβγ)2 (from UniProt P02671-2 36-644; P02675 45-491; P02679-2 27-437) (natural protein)”, in the assay with integrin αIIbβ3 (human) [2], the Kd is 3.2 nM, the dH was -49 kJ/mol, the fold slower off rate at 15 °C than at 37 °C came to 7 fold and the fold slower on rate at 15 °C than at 37 °C stood at 2 fold. In the assay with integrin αIIbβ3 (human) [2], this molecule showed a fold tighter binding at 15 °C than at 37 °C of 4 fold, a koff of 7.01e-05 s⁻¹ and an association rate constant (kon) of 21900 M⁻¹ s⁻¹. Further, in the assay with integrin αIIbβ3 (human) [7], the Kd worked out at 4.42 nM, the koff is 8.41e-05 s⁻¹ and the kon came to 19000 M⁻¹ s⁻¹.

In the assay with integrin αIIbβ3 (human) [2], “normal recombinant fibrinogen (from UniProt P02671-2 36-644; P02675 45-491; P02679-2 27-437) (natural protein)” registered a kon of 21900 M⁻¹ s⁻¹.

Consider HHLGGAKQAGDV [synthetic γ-module peptide …], for which, in the assay with integrin αIIbβ3 (human) [8], the percent reduction of the fibrinogen (100 nM) binding signal at 3 µM peptide was < 10%.
